These results are taken from patent US20120065146A1.

Non-standard residues stand in square brackets, D forms with d. No end group written: not given here. pT = C[C@@H](OP(=O)(O)O)[C@H](N)C(=O)O

In this test the target is HA-EGFP-Plk1, P53350. Briefly: ELISA competition. Particulars: remark: other sources report otherwise. In general terms: In an ELISA, binding on a coated surface is turned into a signal by an enzyme label.
Chain of HA-EGFP-Plk1, P53350 (P53350 whole entry): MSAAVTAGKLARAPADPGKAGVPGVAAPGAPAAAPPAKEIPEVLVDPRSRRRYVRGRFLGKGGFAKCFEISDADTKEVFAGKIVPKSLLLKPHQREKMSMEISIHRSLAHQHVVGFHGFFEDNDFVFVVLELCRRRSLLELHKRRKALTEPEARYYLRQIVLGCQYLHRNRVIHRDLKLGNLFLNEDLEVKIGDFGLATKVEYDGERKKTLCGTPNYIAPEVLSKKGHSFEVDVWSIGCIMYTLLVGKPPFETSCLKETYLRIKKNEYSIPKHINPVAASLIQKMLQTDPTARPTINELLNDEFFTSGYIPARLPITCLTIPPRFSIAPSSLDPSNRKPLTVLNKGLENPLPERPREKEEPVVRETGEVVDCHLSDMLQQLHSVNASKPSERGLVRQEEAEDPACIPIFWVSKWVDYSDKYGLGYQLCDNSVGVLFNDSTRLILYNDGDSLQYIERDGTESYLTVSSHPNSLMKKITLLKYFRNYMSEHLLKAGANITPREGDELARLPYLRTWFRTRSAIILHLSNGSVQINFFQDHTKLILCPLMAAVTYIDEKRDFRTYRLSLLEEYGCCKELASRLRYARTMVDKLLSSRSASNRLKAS

Take PLHA[pT] (also: further groups not given here) [peptide 5 (Example 15), S/A mutant of 3l]: the fold decrease in binding against 3l was determined as 100 fold.

As to PLHA[pT] (also: Pro 1 modified as in ether analogue 8 (structure not given here)) [peptide 11 (Example 12), S/A mutant of 8], the fold loss of binding affinity was more than 100 fold.

Molecule PLHA[pT] (also: Pro 1 modified as in ether analogue 7 (structure not given here)) [peptide 9 (Example 12), S/A mutant of 7] showed a fold loss of binding affinity of more than 100 fold.
